The record followed here is patent US20260183437A1, “VHH ANTIBODY CONJUGATES WITH HETEROARYL CHELATORS” (ABDERA THERAPEUTICS INC., priority 2022, published 2026).

Positions count from the first letter of the chain named.

In data set [1] the test system is HEK-DLL3 cells. In words: Internalization assay (pHAb dye labelled secondary antibody, flow cytometry). Particulars: 75 nM, 37° C. The data set is classed as cell-based. As for the experimental part:
(§1) VHH-Fcs were tested for internalization by target-expressing cells using a secondary antibody conjugated to a pH sensitive dye. Goat anti-hu IgG-Fc secondary antibody was amine-conjugated to a pH sensitive pHAb dye (Promega Cat #G9845) according to the manufacturer's instructions. The pHAb dye has low or no fluorescence at pH>7 but fluoresces in acidic environment upon antibody internalization. […] VHH-Fcs and hIgG1 isotype control were diluted in media to 75 nM. Cells were spun to remove supernatant, resuspended with the prepared primary antibodies and incubated on ice for 1 hour. Excess primary antibody was washed off from cells and then incubated with pHAb labelled secondary antibody on ice for 30 minutes. Excess secondary was then washed off and cells were resuspended in media. One set of samples was placed in an incubator at 37° C. to allow internalization, and another set was left on ice (0° C.) as a binding only control. Cells were sampled at different time points ranging from 0 to 24 hours. Cells were stained with DAPI and read by flow cytometry on 572/28 channel with iQue screener platform. The VHH-Fcs show higher fluorescence than the negative controls (isotype, buffer) on target-positive cells.

Data set [2] deals with SHP-77 cells. The description is as above. Particulars: 75 nM, 37° C. The data set is classed as cell-based. As for the experimental part: as §1
Data set [3] addresses T1, FcγRIIb/c (Homo sapiens, UniProt P31994).
T1 construct: purchased Acro Biosystems
T1 sequence (P31994 43-310): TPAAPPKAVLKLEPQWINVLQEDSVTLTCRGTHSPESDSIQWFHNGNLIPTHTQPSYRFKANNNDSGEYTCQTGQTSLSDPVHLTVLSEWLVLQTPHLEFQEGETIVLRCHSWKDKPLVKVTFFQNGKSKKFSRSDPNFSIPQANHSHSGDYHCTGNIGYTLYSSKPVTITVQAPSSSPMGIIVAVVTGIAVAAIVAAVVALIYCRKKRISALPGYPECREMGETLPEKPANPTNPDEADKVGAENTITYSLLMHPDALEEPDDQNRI
In words: FcγR affinity by biolayer interferometry (Octet Red96e). The data set is classed as binding. As for the experimental part: (§2) VHH-Fcs were also tested for affinity to FcγRs by biolayer interferometry using the Octet Red96e platform. Each cycle is performed with orbital shake speed of 1,000 rpm. Streptavidin (SA) biosensors (Sartorius 18-5019) were rehydrated for 10 mins using kinetics buffer (PBS+0.1% BSA+0.02% Tween-20). Biotinylated-FcγRs (Acro Biosystems) were then loaded for 40-100 s onto SA biosensors at concentrations ranging between 1-5 μg/mL diluted in PBS. VHH-Fcs were serially diluted 1:2 in sample buffer (PBS+0.02% Tween-20) with starting concentrations ranging between 5000 nM to 37.5 nM. Loaded biosensors were then associated with VHH-Fcs for 60-120 s. VHH-Fc dissociation was measured for 30-900 s in sample buffer. Bound VHH-Fcs were then removed using 3 cycles of 5 s regeneration buffer (150 mM NaCl, 300 mM Sodium Citrate) and 5 s sample buffer. The data was analyzed either using a globally-fitted 1:1 Langmuir binding model (FcγRI) or steady state analysis (Octet software version HT v11.1).

In data set [4] the target is T2, FcγRIIIa (F176) (Homo sapiens, UniProt P08637).
T2 construct: purchased Acro Biosystems
The description is as above. In kind it is binding. As for the experimental part: as §2

In data set [5] the target is T3, FcγRIIa (R167) (Homo sapiens, UniProt P12318, H167R).
T3 construct: purchased Acro Biosystems
T3 sequence (P12318 36-218 H167R limits assumed): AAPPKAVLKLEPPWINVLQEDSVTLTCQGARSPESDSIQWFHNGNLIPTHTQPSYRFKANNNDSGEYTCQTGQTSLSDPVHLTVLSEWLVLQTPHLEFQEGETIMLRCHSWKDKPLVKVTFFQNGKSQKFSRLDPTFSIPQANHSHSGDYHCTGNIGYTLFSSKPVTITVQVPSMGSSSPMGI
Described as above. In kind it is binding. As for the experimental part:
as §2

In data set [6] the target is T4, FcγRIIIa (V176) (Homo sapiens, UniProt P08637, F176V).
T4 construct: purchased Acro Biosystems
Described as above. In kind it is binding. As for the experimental part:
as §2

Data set [7] deals with T5, FcγRI (Homo sapiens, UniProt P12314).
T5 construct: purchased Acro Biosystems
The description is as above. In kind it is binding. As for the experimental part: as §2

For data set [8], the target named is T6, FcγRIIa (H167) (Homo sapiens, UniProt P12318).
T6 construct: purchased Acro Biosystems
T6 sequence (P12318 36-218 limits assumed): T3 sequence (P12318 36-218 H167R limits assumed) with R132H
The description is as above. In kind it is binding. As for the experimental part: as §2

Data set [9] is described as follows: Pharmacokinetics of VHH-Fc variants in Tg32 (humanized FcRn) mice. Particulars: IV 3 mg/kg, HER2 VHH-Fc study (Table 6). The data set is classed as in vivo. As for the experimental part: Twenty eight (28) 8 week old male B6. Cg-Fcgrt^tm1Der Tg(FCGRT)32Dcr/DcrJ (Tg32 hom, JAX stock #014565) mice were distributed into 7 groups with 4 mice per group as outlined in the table. […] (See, e.g., Avery L B et al. “Utility of a human FcRn transgenic mouse model in drug discovery for early assessment and prediction of human pharmacokinetics of monoclonal antibodies.” MAbs. 2016 August-September; 8(6):1064-78). On Day 0, body weights were measured and test articles were IV administered to all mice at 3 mg/kg and 5 mL/kg. 25 μL blood samples were collected from each mouse at time intervals. The blood samples were collected into 1 μL K3EDTA, processed to plasma, diluted 1/10 in 50% glycerol in PBS, transferred into specialized 96 well storage plates, and stored at −20° C. All plasma samples were assessed via a hIgG ELISA chosen for its high sensitivity for all seven test articles.

T2 sequence (P08637 17-208 limits assumed): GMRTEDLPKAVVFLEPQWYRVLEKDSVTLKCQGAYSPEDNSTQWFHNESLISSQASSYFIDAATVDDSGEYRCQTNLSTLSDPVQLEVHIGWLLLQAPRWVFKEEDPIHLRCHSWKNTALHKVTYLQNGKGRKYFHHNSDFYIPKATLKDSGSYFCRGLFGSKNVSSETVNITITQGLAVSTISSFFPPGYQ
T4 sequence (P08637 17-208 F176V limits assumed): as the sequence (P08637 17-208 limits assumed) above, with F160V counted along it
T5 sequence (P12314 16-374): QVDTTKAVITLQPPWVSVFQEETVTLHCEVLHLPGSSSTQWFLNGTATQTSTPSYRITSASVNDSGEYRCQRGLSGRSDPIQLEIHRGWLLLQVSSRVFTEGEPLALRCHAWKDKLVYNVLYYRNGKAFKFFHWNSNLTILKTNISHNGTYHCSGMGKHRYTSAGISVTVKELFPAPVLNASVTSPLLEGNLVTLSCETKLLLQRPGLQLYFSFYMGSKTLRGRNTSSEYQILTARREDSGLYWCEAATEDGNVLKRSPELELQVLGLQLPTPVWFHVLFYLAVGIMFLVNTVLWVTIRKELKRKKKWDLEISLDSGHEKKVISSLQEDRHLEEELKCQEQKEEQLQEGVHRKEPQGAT

Take “H101: anti-HER2 VHH-Fc (2RS15d VHH, human IgG1 Fc); FcRn wt, Fc effector wt [Compound H101]”: the Internalization result in data set [1] and in data set [2] was “internalized” in each case. Also, the Kd in data set [3] was determined as 450 nM; in [4], 1600 nM; in data set [5], 160 nM; in data set [6], 480 nM; in data set [7], 1.01 nM; in [8], 340 nM. The substance further yielded a Clearance in data set [9] of 28.7 mL/day. The substance further displayed a Cmax in data set [9] of 57.0 µg/mL. Moreover, the “Terminal Half-Life” value in [9] is 166 h.
